The source of these data is article PMC8000976.

The assay deals with full-length dengue virus serotype 1 (DENV1) NS1 (dengue virus serotype 1 (DENV1)). The experiment in a line: crystal structure.

By stoichiometry N is commonly meant a count of units in the complex or per binding partner. On to “full-length dengue virus serotype 1 (DENV1) NS1 (natural protein)”, for which the stoichiometry N came to 2.
